These results are taken from patent US20120301468A1 (Bayer, published 2012).

Assay [1] addresses T1, human MN protein, entire extra-cellular domain with a C-terminal histag, expressed in HKB-11 cells (human, UniProt Q16790 38-414). As to the kind of experiment: BIAcore surface plasmon resonance; Fab captured on immobilized anti-human-Fab IgG, purified human MN (HKB-11) as analyte; 1:1 Langmuir fit. (In general: Surface plasmon resonance follows binding to a sensor surface in real time, without labels.)

Assay [2] concerns the target T1, human MN protein, entire extra-cellular …. As to the kind of experiment: SPR, BIAcore 3000, IgG captured by anti-human IgG Fc, MN as analyte, 1:1 Langmuir fit.
Assay [3] addresses T2, MN protein on the surface of MN-expressing (MN+) cells (PC3 mm2, MaTu) (human, UniProt Q16790 38-459). As to the kind of experiment: cell-based or functional assay.
Assay [4] deals with T1, human MN protein, entire extra-cellular …. The assay can be described thus: Biacore (SPR), purified MN protein.
Assay [5] shares this target. The assay can be described thus: BIAcore surface plasmon resonance; IgG captured on immobilized goat anti-human IgG Fc, purified human MN (HKB-11) as analyte; 1:1 Langmuir fit.
The target is the same in assay [6]. As to the kind of experiment: Biacore (SPR), purified MN protein. This is another data set of the same source.
Assay [7] addresses T2, MN protein on the surface of …. The assay can be described thus: FACS on PC3mm2 (MN+) cells with DLD (MN-) cells as negative cells; traces not labelled on the sheet.

B1: 3ee9 Fab (Fab, V domains shown)
VH: ELVESGGGLVQPGGSLRLSCAASGFTFSSYGMSWVRQAPGKGLEWVSGISSLGSTTYYADSVKGRFTISRDNSKNTLYLQMNSLRAEDTAVYYCARTGSPGTFMHGDHWGQGTLVTVSS
VL: DIQMTQSPSSLSASVGDRVTITCRASQDINNYLSWYQQKPGKAPKLLIYGASNLQSGVPSRFSGSGSGTDFTLTISSLQPEDFAVYYCQQYYGRPTTFGQGTKVEIK
notes: only the CDRs are tied
Molecule B1 registered a Kd in assay [1] of 16 nM.

B2: 3ah10 Fab (Fab, V domains shown)
VH: ELVESGGGLVQPGGSLRLSCAASGFTFSSYGISWVRQAPGKGLEWVSSISYSGSNTYYADSVKGRFTISRDNSKNTLYLQMNSLRAEDTAVYYCARMKPMRGYSGAVWGQGTLVTVSS
VL: DIQMTQSPSSLSASVGDRVTITCRASQDISNRLAWYQQKPGKAPKLLIYDANSLQSGVPSRFSGSGSGTDFTLTISSLQPEDFATYYCFQYSGPTFGQGTKVEIK
notes: Only CDRs are tied to the name
For B2, the Kd in assay [1] came to 16 nM.

B3: 5aa3 full-length human IgG1 (antibody, V domains shown)
VH: QVELVQSGAEVKKPGESLKISCKGSGYSFTGYISWVRQAPGKGLEWMGIIYPGDSYTNYSPSFQGQVTISADKSISTAYLQWSSLKASDTAMYYCARYSGPNWDVMDSWGQGTLVTVSS
VL: DIVLTQPPSVSGAPGQRVTISCSGSSSNIGSYYVNWYQQLPGTAPKLLIYADDKRPSGVPDRFSGSKSGTSASLAITGLQSEDEADYYCQSYDSTKDDSVFGGGTKLTVL
notes: Full-length human IgG1 made from the Fab; Only CDRs are tied to the name
Turning to B3, the Kd in assay [2] was 1 nM.

B4: 3ee9/MMAE (3ee9 human IgG1 conjugated to monomethylauristatin E) (antibody, V domains shown)
VH: QVELVESGGGLVQPGGSLRLSCAASGFTFSSYGMSWVRQAPGKGLEWVSGISSLGSTTYYADSVKGRFTISRDNSKNTLYLQMNSLRAEDTAVYYCARTGSPGTFMHGDHWGQGTLVTVSS
VL: DIQMTQSPSSLSASVGDRVTITCRASQDINNYLSWYQQKPGKAPKLLIYGASNLQSGVPSRFSGSGSGTDFTLTISSLQPEDFAVYYCQQYYGRPTTFGQGTKVEIKR
modifications: Monomethylauristatin E (MMAE) is conjugated to the antibody through a linker (FIG. 9). The chain and residues of attachment are not stated, and the letters do not carry the drug.
notes: Only CDRs are tied to the name; also called BAY 79-4620; 3ee9-IC
For B4, the “Cytotoxicity: MN+/MN- (ec50)” value in assay [3] turned out to be 50 nM. Moreover, the affinity in assay [4], expressed as Kd, was 3.6 nM.

B5: 3ee9 full-length human IgG1 (antibody, V domains shown)
VH: B4 VH
VL: B4 VL
notes: Only CDRs are tied to the name; also called unconjugated antibody 3ee9; antibody portion of 3ee9/MMAE
Take B5: the results for the Kd in assay [2], in assay [5] and in assay [6] were 4 nM, 5.9 nM and 3.6 nM, respectively.

B6: 5a6 Fab (Fab, V domains shown)
VH: ELVQSGAEVKKPGESLKISCKGSGYSFSKYWIGWVRQMPGKGLEWMGIIYPTDSYTRYSPSFQGQVTISADKSISTAYLQWSSLKASDTAMYYCARTHGYYKNGRMDVWGQGTLVTVSS
VL: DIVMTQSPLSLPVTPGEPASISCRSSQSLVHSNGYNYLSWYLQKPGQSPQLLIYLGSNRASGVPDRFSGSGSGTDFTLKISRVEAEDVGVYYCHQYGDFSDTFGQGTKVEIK
notes: as for B2
B6 had a Kd in assay [1] of 3.4 nM.

B7: 1aa1 Fab (Fab, V domains shown)
VH: ELVQSGAEVKKPGASVKVSCKASGYTFTTNYMHWVRQAPGQGLEWMGIINPHNGSTSYAQKFQGRVTMTRDTSISTAYMELSSLRSEDTAVYYCARGRYFLMDVWGQGTLVTVSS
VL: DIQMTQSPSSLSASVGDRVTITCRASQNILSYLNWYQQKPGKAPKLLIYAASSLQSGVPSRFSGSGSGTDFTLTISSLQPEDFAVYYCQQYGSVPTFGQGTKVEIK
notes: as for B2
In assay [1], B7 displayed a Kd of 0.15 nM.

B8: 1aa1 immunoconjugate (antibody, human IgG1, V domains shown)
VH: QVELVQSGAEVKKPGASVKVSCKASGYTFTTNYMHWVRQAPGQGLEWMGIINPHNGSTSYAQKFQGRVTMTRDTSISTAYMELSSLRSEDTAVYYCARGRYFLMDVWGQGTLVTVSS
VL: B7 VL
modifications: A cytotoxic drug (MMAE by paragraph 261) is conjugated to the IgG1. The chain and residues of attachment are not stated, and the letters do not carry the drug.
notes: Human IgG1 1aa1 conjugated to a cytotoxic drug; Only CDRs are tied to the name
Consider B8, for which, in assay [7], the binding result is recorded as “binds”.

B9: 1aa1 full-length human IgG1 (antibody, V domains shown)
VH: B8 VH
VL: B7 VL
notes: as for B3
With B9, the Kd is 27 nM in assay [2] and 49 nM in assay [5].

B10: 3bb2 Fab (Fab, V domains shown)
VH: ELVESGGGLVQPGGSLRLSCAASGFTFSNYGISWVRQAPGKGLEWVSAISYYGSNTYYADSVKGRFTISRDNSKNTLYLQMNSLRAEDTAVYYCARLKGGSGFVWGQGTLVTVSS
VL: DIVMTQSPLSLPVTPGEPASISCRSSQSLVYSNGNTTLSWYLQKPGQSPQLLIYGVSNRASGVPDRFSGSGSGTDFTLKISRVEAEDVGVYYCQQYNSFPRTFGQGTKVEIK
notes: as for B2
B10 returned a Kd in assay [1] of 27 nM.

B11: 3ef2 Fab (Fab, V domains shown)
VH: ELVESGGGLVQPGGSLRLSCAASGFTFSSYGMHWVRQAPGKGLEYVSAISYSSSSTSYADSVKGRFTISRDNSKNTLYLQMNSLRAEDTAVYYCARLSYTGFAVWGQGTLVTVSS
VL: DIELTQPPSVSVAPGQTARISCSGDNLGSYYVHWYQQKPGQAPVLVIYDDNNRPSGIPERFSGSNSGNTATLTISGTQAEDEADYYCQSYDFGKVVFGGGTKLTVL
notes: as for B2
B11 had a Kd in assay [1] of 4.1 nM.

B12: 1e4 full-length human IgG1 (antibody, V domains shown)
VH: ELVESGGGLVQPGGSLRLSCAASGFTFSNNAMNWVRQAPGKGLEWVSGISYDSSKTYYADSVKGRFTISRDNSKNTLYLQMNSLRAEDTAVYYCARLTYTGAYRWGQGTLVTVSS
VL: B11 VL
notes: Full-length human IgG1 made from the Fab (IgG1 constant region PIR J00228); Only CDRs are tied to the name; also called monoclonal IgG1 1e4; anti-MN antibody 1e4
In the case of B12, the Kd worked out at 5 nM in assay [2] and 1 nM in assay [5].

B13: 3ef2 full-length human IgG1 (antibody, V domains shown)
VH: QVELVESGGGLVQPGGSLRLSCAASGFTFSSYGMHWVRQAPGKGLEYVSAISYSSSSTSYADSVKGRFTISRDNSKNTLYLQMNSLRAEDTAVYYCARLSYTGFAVWGQGTLVTVSS
VL: B11 VL
notes: as for B3
As for B13, in assay [2], binding was characterised by a dissociation constant (Kd) of 6 nM.

B14: 1e4 Fab (Fab, V domains shown)
VH: B12 VH
VL: B11 VL
notes: as for B2
Take B14: in assay [1], binding was put at a Kd of 1.4 nM.

B15: 3ab4 Fab (Fab, V domains shown)
VH: ELVESGGGLVQPGGSLRLSCAASGFTFSSYGISWVRQAPGKGLEWVSGISYSGSSTYYADSVKGRFTISRDNSKNTLYLQMNSLRAEDTAVYYCARLKPYRHKNGWFDYWGQGTLVTVSS
VL: DIQMTQSPSSLSASVGDRVTITCRASQNISNYLNWYQQKPGKAPKLLIHKVSNLQSGVPSRFSGSGSGTDFTLTISSLQPEDFAVYYCLQYDDFPRTFGQGTKVEIK
notes: as for B2
B15 showed a Kd in assay [1] of 50 nM.

The Kd is the free concentration of one partner at which half of the binding sites on the other are occupied at equilibrium, for simple one-to-one binding. High values mean lower affinity, low ones higher affinity.
